A short description of the data set: label from the status in PepcDB records.
As for “MARTFRSLRNFNYRVWASGAIVSNIGTWMQRTAQDWLVLTELTHHNATAVGIVMSLQFGPQMLLLPLTGYAADHFNRRKLLFITQTAMGLLALGLGLMTVTGLVRLWHVYVFALLLGCVTAFDAPARQTFVSDLVGEEDLPNAVALNSTSFNGARMIGPAITGLLIASIGTGWVFLINALSFVPVIGALRMLRQHELHLKPPAQRSRGSFLEGFRYVWKRPDLKAALFMLFLIGTFGLNFPIFISTMSVSAFHAGAGQYGLLSSTMAIGSVTGTLLAARRARPRMAILVGAATIFGVGCMFGALMPNAVLFGLTLAVIGASTQTFTTSTNSLVQISTEPAMRGRVIAILLAIALGTTPLGAPVVGWVADRFGPRWALGVGAASGFAAALVGLFYLMRNRNLRFYIETGRLRYSIDKPRQTAFMAAPAASVPNVVMSKAEDE”, the protein production entry is “failed”.
“MPEKPTEDARFYGRRKGKPLRATRQRLLDTMLPALTLPLAGLGEGERLDPRGLFPRPVDQLWLEIGFGGGEHLVAQAAAHPEVGLIGSEVFAYGVGKALSQIDETGVDNIRLWPEDVRQVLPALPDGCLQRLFVLFPDPWPKRRHARRRMIQPARLDDFARLLADGGELRVASDDMGYVRWTLMHVTAHPAFRWTAQGPTDWRERPADWVETRYEAKALQAGRKPAYLIFRRRPRAADPGTLAEAPAGEGADNNP”: the protein production entry is “failed”.
Take “MNIRPSQIKHKQRIASFITHAVVVVMGVLIVSVLFQSYQISSRLMAQEGQRTSVQTSSLIQSLFDFRLAALRIHQDSTAKNASLINALVSRDSSRLDEFFSSVDELELSNAPDLRFISSHDNILWDDGNASFYGIAQQELNKLIRRVAISGNWHLVQTPSEGKSVHILMRRSSLIEAGTGQVVGYLYVGIVLNDNFALLENIRSGSNSENLVLAVDTTPLVSTLKGNEPYSLDYVVHSAKDAMRDSFIVGQTFLEVESVPTYLCVYSIQTNQNVLTLRDNFYFWMAFALISMIGVSIASRWWLQKRIQREIETLMNYTHKLMDLDTKSEFIGSKIYEFDYFGRTLEQSFRRLANKEKQFEDLFNFALSPTMLWNTSGRLIRMNPSAQIQFLREDAQNHFLFEILERQLLPTITNAAQGNNPSDVTTEVDGRVYRWNLSPIMVEGQIISIITQGQDITTIAEAEKQSQAARREAEESARVRAEFLAKMSHELRTPLNGVLGVSQLLKRTPLNDEQREHVAVLCSSGEHLLAVLNDILDFSRLEQGKFRIQKNEFRLKELVCAIDRIYRPLCNEKGLELVVNSNITTAAIVRSDQIRINQILFNLLNNAIKFTHQGSIRVELQLIEGDPLAQLVIQVVDTGIGIREQDLTVIFEPFMQAESTTTREYGGSGLGLTIVHSLVEMLSGQLHVSSEYGIGTRFEIQLPIELVEKPDAPQQLLPAPDPQPLFDKTLRVLLVEDNHTNAFIAQAFCRKYGLDVSWVTDGLQAIEELKIHDYDLVLMDNQLPYLDGVETTRTIKKVLHLPVVVYACTADGLEETRQAFFHAGAEYVLVKPLKEQTLHKALEHFKHHHGQKNAGLN”: the protein production result was “failed”.
Regarding “MSMKKQFALFSTLLLLGSSMPVGAFAEGNNLVAENSSVAETTAEATTAEATETTATSETTEATEESTTETESSTESSESATTESTETSGTETTDSTTDSTSTSTTESTTDSTSTSTTESTTDSTSTSTTESSTTPTTTPSSSKEQPKPGTSTSESKQPAKPVTPTAPAEKPVEQPAASTPQPEIVPPVTNETVGLVEDDETFTVSKTKKTEEFIQEIGESARKVAKDKNLYASVMIAQAILESGSGNSKLSQKPNYNLFGIKGDYKGQSVSFITYEDNGFGNLYTVEAKFRQYPTYKESMEDYAKLLKNGLDSNKDFYHGVWKTEAKSYKEATRFLTGKYATDKDYHKKLNALIKTYDLTYYDKEKATVEPMESNFPAYNGKNYDTFNSYAWGNCTQYVYNRITQLGKRVDLTMGNGQDWGETGRARGYKVSRTPKAGAAVSFPAGVLGADNTYGHVAFVEKVFKDGSILISEMNVKGLNVVSTRTISADETHLMNYIVPKDK”, the protein production entry is on record as “failed”.
Take “MSEVNKKVQDGVDDYLEEEDFGQLLEAFDKSREEATTEGVIVEIKNDEVYVDIGKKSEGILALSEIQGDNSKLLFNVGDSIKVAVMGSRGGRSLLSHKKALRKEKVIEFIKNYQENQDDIFTVKVVGKNKGGLIVVDENDVEFFLPKSQYGFKETNNIIGKTFKVKIIKIDKDEQSIIVSRKKTLDDERRKRKELINNVAQQEDLIEGIVKKITTYGMFVDVGGVDGLVHYSEISYKGPVNPGTLYKEGDKVPVKVIKYDKERKHLSLSIKAALPDPWSEIKDTLDIGDTIKVIVSNIEPYGAFVDLGNDIEGFLHISEISWDKNIKNPKDYINKGQEIDVEVIEINPNERRLRVSLRNLLSRPFDEFMKSYKIADVVEGEITSVTSFGAFVKLGGIEGLLHNEDASWDRNDKCKDKFSQGDKIKVKIIKIDEENQKISLSTKELSSSPVQEYAKIHKVGDIVKGAIRDIKDFGVFVELSKNVDALIHKEDISTSMLENLKIGDDIEAAIVFIDEKKNRIRLSVKNLVRIKEREVLNEINNDDKVTLGDIIKDQLALEHHHHHH”: the protein production entry is recorded as “not failed”.
For the sequence “LFGVTSELSKDGRERIYRVEGQLFYASVEDFMAAFDFREALDRVVIDVSRAHIWDISSVQALDMAVLKFRREGAEVRIVGMNEASETMVDRLAIHD”, the protein production result was “not failed”.
Take “MGHHHHHHSHMVLSQNTKRESGRKVQSGNINAAKTIADIIRTCLGPKSMMKMLLDPMGGIVMTNDGNAILREIQVQHPAAKSMIEISRTQDEEVGDGTTSVIILAGEMLSVAEHFLEQQMHPTVVISAYRKALDDMISTLKKISIPVDISDSDMMLNIINSSITTKAISRWSSLACNIALDAVKMVQFEENGRKEIDIKKYARVEKIPGGIIEDSCVLRGVMINKDVTHPRMRRYIKNPRIVLLDSSLEYKKGESQTDIEITREEDFTRILQMEEEYIQQLCEDIIQLKPDVVITEKGISDLAQHYLMRANITAIRRVRKTDNNRIARACGARIVSRPEELREDDVGTGAGLLEIKKIGDEYFTFITDCKDPKACTILLRGASKEILSEVERNLQDAMQVCRNVLLDPQLVPGGGASEMAVAHALTEKSKAMTGVEQWPYRAVAQALEVIPRTLIQNCGASTIRLLTSLRAKHTQENCETWGVNGETGTLVDMKELGIWEPLAVKLQTYKTAVETAVLLLRIDDIVSGHKKKGDDQSRQGGAPDAGQE”: the protein production result was “failed”.
In the case of “MMSGLVYRKRRRQNMTALERSWFEEAQQSMHGWDFSHLAGRWQTADLPWDYAALVREHLSADDRWLDIDTGGGELMGRFNPQPALTAVTEGWQPNIELLKQTVVKKGITLYPDAAEQLTAVPNSTFDIVTNSHGAMPVKRIAEVLKPGGRFVTQQVGATNNYALSRFFDEHYETAYPDNQLLTVMAQMQAAGFEILRAEQAYAALSFTDVGAIVYYATVIPWEFPHFDVARMLPKLHQLQSLLAINGRVTTFEDRFMIIARKLARRD”, the protein production result was “failed”.
As for “MIDPRPVGYILGLLVATLGALMLVPMALDLAAGDRHWLSFAETATITTVAGSMLALACANGRGQGTGLSLQQSFLLTTGAWVLLPVFGALPFMMGRPDASFTDAVFEAMSGFTTTGTTVFVGLDALPLGTNLWRGMLQWLGGLGIVIVAMIFLPVMKVGGMQFFRSEGFDTLGKILPRALDISTALIQIYLVLTMACVMTFLALGIPLFEAVVHALTTVSTGGFSSSDRSFGLFQGPAEYACAFFMVLASLPFVRFVQLAQGTFLPLWRDPQVRAYLRWNGYAIGLIVAYEVVTRNAPVLPTLRETTFNVISTFSGTGFSSVDLGLWGTFPFVLLIVVGLIGGCTSSTGCSVKVFRYLILLEAIKVQIRRLQSPSAVIFVDYEGRRVGEDVINSVILFFTMFILSFGVLAVLLSLTGLQTKTAITAAWTAIANVGPAFGPEVSATGAVDRFPAVAKWLMIGGMLVGRLELLSVFVLLTPRFWRS”, the protein production result is listed as “failed”.
On to “MKGSVKKDKKTGKYFYIVDIDIDPLTGKRKQKKKRGFTSKKEAENALTNLLSEVHTGTYVEPSKLSYGEYLESWFNTKRHSVGIQTAKVLKGYLNSRIIPSLGNIKLAKLTSLHMQNYVNSLRDEGLKRGTIEKIIKVIRNSLEHAIDLELITKNVAAKTKLPKADKEELTVWNEQEVQLFLKAAQDGRYSIVFHMALVTGMRQGELLGLRWKDVDLEKGHLIISQTLSHDGKTFLVGGKTKSSLRKILLPASTIAKLKKHRAVILKEKLSQGEEYQDNDLVMCTPSGTPINPANVRRSLNALIQKAAVPKIRFHDLRHTHATLLLAKGVNVKVISERLGHSNIKITLDTYSHVLPTMQEDAVNKMEEIL”, for which the protein production entry is recorded as “failed”.
For the sequence “MHERTGLWRGITAVGALLLAVAIMAGTIMETYRTSLDAFVGTRSQRTVTDQSADNGDSWTYKSEYKTAKEAYEGFKKTAMDEAQETYVLLKNSDNALPLSKSAKITMFGVRSYAPVYGSSGGSVTDGNSTVEITKAFEEEGFQINPSMLKAYQNYFKDKKWTTPQFGGGILPEYEDITKYNDPCELSLDELAKLNPEYKSQYGEYQDAAIVVVGRPAGENGDGYYPGQDGLADGVNTVTGNILSLSDEEMALVNEAKANFSKVIVLVNSTNPMEIANLQDDPDIDAIMWIGYPGAYGFYGVADVLNGTVSPSAHLGDVMAKNSAVAPAMSNYGNVAWKNASDFSEDAAVNSYLMEAEGIYTGYRYYETRYADIVMGNGGDTASAGTYAASDGTVATADGTWDYANEVVYPFGYGLSYTTFEQKLDGVEIKGDKKTAVATVTVKNTGSVEGKSVIQLYASVPYTDYDKKNGVGKSAIQLMDFEKTNALKPGDSQTITMTVDLSNLASYDSNKAKTYIVDPGDYYFSIGDDVHDALNNVLAAQGYSESDGMTAAGDKTKTYTWSWDGGVDADTFATSSTGTKITNQLSDGKYATDYNAFDKGAVTYLTRSDWNGTFPKTYSGISANEEVSKLLNNDFIDLKSDGDVSDITIGDTSSSLTLNDMKGASYDDERWDELTSKVSVKEFMHFAETAFHAIGAIDSVGLQEMTTDDGPGGSDSHYLNEGQYQGKAYADADDYADKSSRVAPSPTNLAYSWNKELAYRNGEVILGESSLVFRLPIMIAPAMNLHRHAYNSRGVEYYSEDPILSGYIGSAVVQGAQSKGVLVNVKHLAFNDQEINRSGIATFMSEQKAREMELRNFQQAFEANGKPASFESDDAKKNTYTQGALGVMTSYNRIGAVASSANAAVMVNILRDEWGFTGYNVTDFTSVSPHAAPKESVLAGTSAFCGFGNQGVKYWDAATLSKDRDMLLAIKQNMHYSLWAIANSNAMNGVNSSTHTENVMTWWRAVYLGVIAASGVVTLIGLAGYTTTRIRPARNADNGPTAASK”, the protein production result is recorded as “failed”.
The entry for “MKGDRLADIRTIGVVVLYRPDSSVLDAIASYRHQVHELIVVDNSEEQDHKLHSRLRDRFGATIVGEGRNLGIAAALNRAAREALAEGFDLLLTMDQDSRAEPGMVEQMLACLGSDWRERVGLIAPFHLTGARPAPGGTTPCSDVMTPMTSGCLVNLAAFREVGPFRDDFFIDFVDNEYCLRLRKKGFQVVRANRALLHHRVGDLRRYGPFVATHHSPLRRYYKTRNRCAVFAEYLRDFPVHCLFDLVRLGKEVASILIFEREKTAKLRMMWRGFLDFRRGRFGPYGGLEHHHHHH” is “failed”; for “MKQSKIIVAGIGPGSEQDITPAVLAAVREADVVVGYKYYFRFIRDFVRPDAECIDTGMKRERARAEQAFEYAEQGKTVCVISSGDAGIYGMTPLIYEMKRERQSNVEIIALPGI” it is “failed”.
Consider “MDIKEAGPFPVKKEQFRMTVNGQAWEVAAVPTTHLSDLLRKEFQLTGTKVSCGIGRCGACSILIDGKLANACMTMAYQADGHSITTIEGLQKEELDMCQTAFLEEGGFQCGYCTPGMIIALKALFRETPQPSDKDIEEGLAGNLCRCTGYGGIMRSACRIRRELNGGRRESGF”, for which the protein production entry is on record as “failed”.
In the case of “VTRAIILAHGYATASSIANVANRLLKSQLFESFDMPLDVTPEAIANQVMAYIESHALASGLIILVDMGSLNAIHRHFNRRLSTPMAIINNVSTGMAMYVGERILQGVMLEDIVREIGDDLAVEHQLYYPQTDKP”, the protein production result is “failed”.
On to “MSDAFTDVAKMKKIKEEIKAHEGQVVEMTLENGRKRQKNRLGKLIEVYPSLFIVEFGDVEGDKQVNVYVESFTYSDILTEKNLIHYLD”, for which the protein production entry was “not failed”.

The values above are taken from a protein production outcome set (Wang et al. 2014).
